Assay [1] deals with T1, folate receptor 1 (FOLR1) (human, UniProt P15328 25-234). Briefly: cell-based or functional assay.
Assay [2] concerns the target T1, folate receptor 1 (FOLR1). The experiment in a line: cell-based or functional assay. This is another data set of the same source.
The target of assay [3] is T2, cynomolgus monkey CD3 epsilon chain (CD3ε) (cynomolgus monkey (Macaca fascicularis), UniProt Q95LI5 22-198).
T2 construct: also called cynomolgus monkey CD3ε; CD3ε on cyno T cells
T2 chain: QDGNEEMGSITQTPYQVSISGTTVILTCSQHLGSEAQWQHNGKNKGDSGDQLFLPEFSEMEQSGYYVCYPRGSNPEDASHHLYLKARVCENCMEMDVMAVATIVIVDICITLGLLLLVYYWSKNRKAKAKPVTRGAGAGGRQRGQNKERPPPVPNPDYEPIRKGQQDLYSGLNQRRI
Briefly: FACS on isolated cynomolgus monkey T cells; FITC anti-human light chain secondary. How it is done:
(§1) The heterodimeric bispecific antibodies described in Example 1 were produced in HEK 293 cells and were assayed by fluorescence activated cell sorting (FACS) for binding to T cells, which express CD3ε, and to a human ovarian cancer cell line, Ovcar-8, which expresses mesothelin. Briefly, the heterodimeric bispecific antibodies were incubated with about 50,000 Ovcar-8 cells or isolated human or cynomolgus monkey T cells at 4° C. for one hour. The cells were then washed and stained with a fluorescein isothiocyanate (FITC)-conjugated anti-human light chain secondary antibody and analyzed by flow cytometry. The relative binding was represented by the geometric mean of fluorescence intensity.

For assay [4], the target named is T3, human CD3 epsilon chain (CD3ε) (human, UniProt P07766 22-207).
T3 construct: also called CD3ε on human T cells; human CD3ε
Briefly: FACS on isolated human T cells; FITC anti-human light chain secondary. The protocol:
as §1

Assay [5] addresses T2, cynomolgus monkey CD3 epsilon chain …. Briefly: cell-based or functional assay.
The target of another assay is human mesothelin (MSLN) (human, UniProt Q13421 296-598). The experiment in a line: cell-based or functional assay.
Chain of human mesothelin (MSLN) (Q13421 other isoform, or with tags, fused parts or gaps limits assumed): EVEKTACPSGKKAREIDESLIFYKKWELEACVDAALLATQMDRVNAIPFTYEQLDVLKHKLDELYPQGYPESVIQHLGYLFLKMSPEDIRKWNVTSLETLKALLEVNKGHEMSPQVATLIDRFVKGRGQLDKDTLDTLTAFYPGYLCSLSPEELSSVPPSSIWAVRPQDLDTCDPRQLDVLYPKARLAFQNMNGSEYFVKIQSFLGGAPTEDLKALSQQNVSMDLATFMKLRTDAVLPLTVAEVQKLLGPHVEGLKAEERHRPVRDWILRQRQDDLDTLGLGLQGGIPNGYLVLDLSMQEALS

T1 sequence (P15328 25-234): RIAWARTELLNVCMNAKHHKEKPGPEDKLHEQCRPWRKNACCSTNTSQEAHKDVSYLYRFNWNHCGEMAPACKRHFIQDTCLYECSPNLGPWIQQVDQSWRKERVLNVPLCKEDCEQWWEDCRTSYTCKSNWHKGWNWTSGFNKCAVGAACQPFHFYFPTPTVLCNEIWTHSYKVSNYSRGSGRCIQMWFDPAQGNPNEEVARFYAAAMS
T3 sequence (P07766 22-207 limits assumed): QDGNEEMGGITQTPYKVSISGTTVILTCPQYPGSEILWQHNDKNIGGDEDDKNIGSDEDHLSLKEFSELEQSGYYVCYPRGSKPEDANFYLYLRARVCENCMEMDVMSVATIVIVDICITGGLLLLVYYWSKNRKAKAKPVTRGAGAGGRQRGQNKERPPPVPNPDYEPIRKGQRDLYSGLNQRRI

B1: P136795.3 (anti-FOLR1/CD3ε heterodimeric bispecific antibody) (bispecific antibody)
chain 1: EVQLVESGGGLVQPGGSLKLSCAASGFTFNSYAMNWVRQAPGKGLEWVARIRSKYNNYATYYADSVKGRFTISRDDSKNTAYLQMNNLKTEDTAVYYCVRHGNFGNSYVSWWAYWGQGTLVTVSSGGGGSGGGGSQSVLTQPPSVSEAPRQRVTISCSGSSSNIGNNAVNWYQQLPGKAPKLLIYYDDMLSSGVSDRFSGSKSGTSASLAISGLQSEDEADYYCAAWDDSLNGVVFGGGTKLTVLASTKGPSVFPLAPCSRSTSESTAALGCLVKDYFPEPVTVSWNSGALTSGVHTFPAVLQSSGLYSLSSVVTVPSSNFGTQTYTCNVDHKPSNTKVDKTVGGGGSAAAEPKSSDKTHTCPPCPAPEAAGGPSVFLFPPKPKDTLMISRTPEVTCVVVDVSHEDPEVKFNWYVDGVEVHNAKTKPREEQYNSTYRVVSVLTVLHQDWLNGKEYKCKVSNKALPAPIEKTISKAKGQPREPQVYTLPPSREEMTKNQVSLTCLVKGFYPSDIAVEWESNGQPENNYDTTPPVLDSDGSFFLYSDLTVDKSRWQQGNVFSCSVMHEALHNHYTQKSLSLSPGK
chain 2: not shown
In the case of B1, in assay [1], the “EC50 of specific lysis, Cal-51 cells (printed Cal-61) with human T cells” value came out at 1.21 pM and the “EC50 of specific lysis, T47D cells with human T cells” value was found to be 1.26 pM. Moreover, in assay [2], the “EC50 (pM) for IFN-γ release by T cells in presence of T47D cells” value amounted to 27.1 pM, the “EC50 (pM) for IL-2 release by T cells in presence of T47D cells” value stood at 20.3 pM, the “EC50 (pM) for IL-10 release by T cells in presence of T47D cells” value came out at 28.3 pM and the “EC50 (pM) for IL-13 release by T cells in presence of T47D cells” value stood at 27.8 pM. For the same molecule, the “EC50 (pM) for TNF-α release by T cells in presence of T47D cells” value in assay [2] came out at 12.5 pM.

B2: H71365.2 (anti-MSLN/CD3ε heterodimeric bispecific antibody) (bispecific antibody)
chain 1: QVQLVESGGGVVQPGRSLRLSCAASGFTFSSYGMHWVRQAPGKGLEWVAVISYPGNTKYYADSVKGRFTISRDNSKNTLYLQMNSLRAEDTAVYFCARDQKEWRLIFDYWGQGTLVTVSSGGGGSGGGGSQVQLQESGPGLVKPSQTLSLTCTVSGGSINNNNYYWTWIRQHPGKGLEWIGYIYYSGSTFYNPSLKSRVTISVDTSKTQFSLKLSSVTAADTAVYYCAREDTMTGLDVWGQGTTVTVSSASTKGPSVFPLAPCSRSTSESTAALGCLVKDYFPEPVTVSWNSGALTSGVHTFPAVLQSSGLYSLSSVVTVPSSNFGTQTYTCNVDHKPSNTKVDKTVGGGGSAAAVPRDLEVVAATPTSLLISWDAPHHGVAYYRITYGETGGNSPVQEFTVPGSKSTATISGLKPGVDYTINVYAVLAYPRGYPLSKPISINYRTDYKDDDDKGSSHHHHHH
chain 2: DIQMTQSPSSVSASVGDRVTITCRASQGISSWLAWYQQKPGKAPKLLIYAASSLQSGVPSRFSGSGSGAAFTLTISSLQPEDFATYFCQQANSFPLTFAGGTKVDIKRGGGGSGGGGSDIQMTQSPSSLSASVGDRVTITCRASQSINNYLNWYQQKPGKAPTLLIYAASSLQSGVPSRFSGSRSGTDFTLTISSLQPEDFAAYFCQQTYSNPTFGQGTKVEVKRTVAAPSVFIFPPSDEQLKSGTASVVCLLNNFYPREAKVQWKVDNALQSGNSQESVTEQDSKDSTYSLSSTLTLSKADYEKHKVYACEVTHQGLSSPVTKSFNRGEC
As for B2, the figures for the “FACS binding (geometric mean)” value in assay [3] and in assay [4] were 276 geometric mean of fluorescence intensity and 66 geometric mean of fluorescence intensity, respectively. Further, the “Cyno TDCC EC50 (pM), Ovcar-8 target cells with cynomolgus monkey T cells” value in assay [5] stood at 8.1 pM. Further, the “Cyno TDCC Max killing (%), Ovcar-8 target cells with cynomolgus monkey T cells” value in assay [5] turned out to be 86%.

B3: H69072.4 (anti-MSLN/CD3ε heterodimeric bispecific antibody) (bispecific antibody)
chain 1: DIQMTQSPSSVSASVGDRVTITCRASQGISSWLAWYQQKPGKAPKLLIYAASSLQSGVPSRFSGSGSGAAFTLTISSLQPEDFATYFCQQANSFPLTFAGGTKVDIKRGGGGSGGGGSQVQLQESGPGLVKPSQTLSLTCTVSGGSINNNNYYWTWIRQHPGKGLEWIGYIYYSGSTFYNPSLKSRVTISVDTSKTQFSLKLSSVTAADTAVYYCAREDTMTGLDVWGQGTTVTVSSASTKGPSVFPLAPCSRSTSESTAALGCLVKDYFPEPVTVSWNSGALTSGVHTFPAVLQSSGLYSLSSVVTVPSSNFGTQTYTCNVDHKPSNTKVDKTVGGGGSAAAVPRDLEVVAATPTSLLISWDAPHHGVAYYRITYGETGGNSPVQEFTVPGSKSTATISGLKPGVDYTINVYAVLAYPRGYPLSKPISINYRTDYKDDDDKGSSHHHHHH
chain 2: DIQMTQSPSSLSASVGDRVTITCRASQSINNYLNWYQQKPGKAPTLLIYAASSLQSGVPSRFSGSRSGTDFTLTISSLQPEDFAAYFCQQTYSNPTFGQGTKVEVKGGGGSGGGGSQVQLVESGGGVVQPGRSLRLSCAASGFTFSSYGMHWVRQAPGKGLEWVAVISYPGNTKYYADSVKGRFTISRDNSKNTLYLQMNSLRAEDTAVYFCARDQKEWRLIFDYWGQGTLVTVSSRTVAAPSVFIFPPSDEQLKSGTASVVCLLNNFYPREAKVQWKVDNALQSGNSQESVTEQDSKDSTYSLSSTLTLSKADYEKHKVYACEVTHQGLSSPVTKSFNRGEC
For B3, in assay [3], the “FACS binding (geometric mean)” value is 110 geometric mean of fluorescence intensity. In addition, in assay [4], the “FACS binding (geometric mean)” value is 11 geometric mean of fluorescence intensity. Besides, in assay [5], the “Cyno TDCC EC50 (pM), Ovcar-8 target cells with cynomolgus monkey T cells” value came to 18.8 pM and the “Cyno TDCC Max killing (%), Ovcar-8 target cells with cynomolgus monkey T cells” value was determined as 91%.

B4: P73356.3 (anti-MSLN/CD3ε heterodimeric bispecific antibody with Fc region) (bispecific antibody, human IgG1)
chain 1: QVQLQESGPGLVKPSQTLSLTCTVSGGSINNNNYYWTWIRQHPGKGLEWIGYIYYSGSTFYNPSLKSRVTISVDTSKTQFSLKLSSVTAADTAVYYCAREDTMTGLDVWGQGTLVTVSSGGGGSGGGGSSSYELTQPPSVSVSPGQTARITCSGDALPKKYAYWYQQKSGQAPVLVIYEATKRPSGIPERFSGSSSGTMATLTLSGAQVEDEADYYCYSTDSTNYHWVFGGGTKLTVLGASTKGPSVFPLAPCSRSTSESTAALGCLVKDYFPEPVTVSWNSGALTSGVHTFPAVLQSSGLYSLSSVVTVPSSNFGTQTYTCNVDHKPSNTKVDKTVAAAEPKSSDKTHTCPPCPAPELLGGPSVFLFPPKPKDTLMISRTPEVTCVVVDVSHEDPEVKFNWYVDGVEVHNAKTKPREEQYNSTYRVVSVLTVLHQDWLNGKEYKCKVSNKQLPAPIEKTISKAKGQPREPQVYTLPPSRKEMTKNQVSLTCLVKGFYPSDIAVEWESNGQPENNYKTTPPVLKSDGSFFLYSKLTVDKSRWQQGNVFSCSVMHEALHNHYTQKSLSLSPGKAAAHHHHHH
chain 2: EVQLVESGGGLVKPGVSLRLSCAASGFTFSRYGMNWVRQAPGKGLEWVSSISSSGTYIKYADSVKGRFTISRDNAKNSLNLQMNSLRAEDTAVYYCARDRDRYPLDYWGQGTLVTVSSGGGGSGGGGSDIQMTQSPSSLSASVGDRVTITCRASQSINNYLNWYQQKPGKAPTLLIYAASSLQSGVPSRFSGSRSGTDFTLTISSLQPEDFAAYFCQQTYSNPTFGQGTKVEVKRTVAAPSVFIFPPSDEQLKSGTASVVCLLNNFYPREAKVQWKVDNALQSGNSQESVTEQDSKDSTYSLSSTLTLSKADYEKHKVYACEVTHQGLSSPVTKSFNRGECAAAEPKSSDKTHTCPPCPAPELLGGPSVFLFPPKPKDTLMISRTPEVTCVVVAVSHEDPEVKFNWYVDGVEVHNAKTKPREEQYNSTYRVVSVLTVLHQDWLNGKEYKCKVSNKALPAPIEKTISKAKGQPREPQVYTLPPSREEMTKNQVSLTCLVKGFYPSDIAVEWESNGQPENNYDTTPPVLDSDGSFFLYSDLTVDKSRWQQGNVFSCSVMHEALHNHYTQKSLSLSPGK
On to B4, for which the “human TDCC EC50, killing of Ovcar-8 cells” value with human mesothelin (MSLN) was less than 1 pM.

B5: P73352.3 (anti-MSLN/CD3ε heterodimeric bispecific antibody with Fc region, without CH1 and CL) (bispecific antibody)
chain 1: EVQLVESGGGLVKPGVSLRLSCAASGFTFSRYGMNWVRQAPGKGLEWVSSISSSGTYIKYADSVKGRFTISRDNAKNSLNLQMNSLRAEDTAVYYCARDRDRYPLDYWGQGTLVTVSSGGGGSGGGGSDIQMTQSPSSLSASVGDRVTITCRASQSINNYLNWYQQKPGKAPTLLIYAASSLQSGVPSRFSGSRSGTDFTLTISSLQPEDFAAYFCQQTYSNPTFGQGTKVEVKRAAAEPKSSDKTHTCPPCPAPELLGGPSVFLFPPKPKDTLMISRTPEVTCVVVNVSHEDPEVKFNWYVDGVEVHNAKTKPREEQYNSTYRVVSVLTVLHQDWLNGKEYKCKVSNKALPAPIEKTISKAKGQPREPQVYTLPPSREEMTKNQVSLTCLVKGFYPSDIAVEWESNGQPENNYDTTPPVLDSDGSFFLYSDLTVDKSRWQQGNVFSCSVMHEALHNHYTQKSLSLSPGK
chain 2: QVQLQESGPGLVKPSQTLSLTCTVSGGSINNNNYYWTWIRQHPGKGLEWIGYIYYSGSTFYNPSLKSRVTISVDTSKTQFSLKLSSVTAADTAVYYCAREDTMTGLDVWGQGTLVTVSSGGGGSGGGGSSSYELTQPPSVSVSPGQTARITCSGDALPKKYAYWYQQKSGQAPVLVIYEATKRPSGIPERFSGSSSGTMATLTLSGAQVEDEADYYCYSTDSTNYHWVFGGGTKLTVLGAAAEPKSSDKTHTCPPCPAPELLGGPSVFLFPPKPKDTLMISRTPEVTCVVVDVSHEDPEVKFNWYVDGVEVHNAKTKPREEQYNSTYRVVSVLTVLHQDWLNGKEYKCKVSNKQLPAPIEKTISKAKGQPREPQVYTLPPSRKEMTKNQVSLTCLVKGFYPSDIAVEWESNGQPENNYKTTPPVLKSDGSFFLYSKLTVDKSRWQQGNVFSCSVMHEALHNHYTQKSLSLSPGKAAAHHHHHH
As to B5, the “human TDCC EC50, killing of Ovcar-8 cells” value with human mesothelin (MSLN) is less than 1 pM.
